Assay results from US9732101B2, “Bioreversible boronates for delivery of molecules into cells” (WISCONSIN ALUMNI RESEARCH FOUNDATION, priority 2012, dated 2017).

Experiments:
[1] = Heparin-affinity assay (retention on immobilized heparin column); format: binding; settings: for retention on column of heparin in presence of fructose: 0.10 M fructose in elution buffer
Method: To assess the affinity of boronated proteins for oligosaccharides the retention of boronated proteins compared to unmodified protein can be measured on a heparin column.
For example, the affinity of unmodified and benzoboroxole-boronated RNase A for heparin was assessed by retention on a 1.0-mL HiTrap Heparin HP column (GE Healthcare, Piscataway, N.J.). Unmodified and benzoboroxole-boronated RNase A were mixed in a 1:1 ratio (2.0 mg each) in DPBS, and the resulting solution was loaded onto the column. The column was washed with 5 mL of PBS, followed by elution with 45 mL of a linear gradient of NaCl (0.0-1.0 M) in PBS. Elution was monitored by absorbance at 280 nm, and eluted proteins were identified by mass spectrometry. FIG. 2 illustrates an elution profile of a mixture of unmodified RNase A and benzoboroxole-boronated RNase A from a column of immobilized heparin (solid lines). A small amount of unmodified RNase A was apparent in peak B (FIG. 2). It is currently believed that benzoboroxole-boronated RNase A was able to complex to a small amount of unmodified RNase A and extend its elution time. The same assay was then repeated with 100 mM fructose in both buffers (FIG. 2, dashed line). To make fructose-supplemented buffers, fructose (18 g, 100 mmol) was added to 100 mL of a 10× stock solution of PBS, either no additional NaCl or NaCl (58.4 g, 1.00 mol) was added, and both buffers were diluted to a final volume of 1 L and adjusted to pH 7.4.

Pro-5 cells [2] = test: Cellular internalization by flow cytometry; format: cell-based, Chinese hamster
Method: (§1) Cell lines were obtained from American Type Culture Collection (Manassas, Va.) and were maintained according to the recommended procedures. Cells were grown in a cell culture incubator at 37° C. under CO2 (5% v/v) in flat-bottomed culture flasks. Cell medium was supplemented with GIBCO fetal bovine serum (FBS) (10% v/v), penicillin (100 units/mL), and streptomycin (100 μg/mL) in the appropriate cellular medium as follows: Pro-5, MEM α+ribonucleosides+deoxyribonucleosides; Lec-2, MEM α-ribonucleosides-deoxyribonucleosides; and K562, RPMI 1640. Cells were counted by hemocytometry for dispensing into 12-well plates (Corning Costar, Lowell, Mass.) or 8-well chambered coverglass slides (Nuc Lab-Tek II, Thermo Scientific).
(§2) BODIPY-FL was excited with a 488 nm solid-state laser and the emission was collected with a 530/30 bandpass filter. To collect the most reproducible data, for every flow cytometry experiment, the sensitivity (voltage) of the photomultiplier tube was set for all data collections using mid-range Rainbow beads from Spherotech (Lake Forest, Ill.) to a predetermined fluorescence target value. At least 10,000 cellular events were acquired for each sample. Data were analyzed using FlowJo 8.1.3 (Treestar, Ashland, Oreg.).
(§3) The day prior to an experiment, Pro-5 and Lec-2 cells were plated in 12-well plates at 1×10^5 cells/well. The day of the experiment, the appropriate amount of fructose was dissolved into the cellular medium to obtain a final fructose concentration of 250 mM, and the medium was passed through a 0.45-μm syringe filter from Whatman (Piscataway, N.J.). Non-fructose-containing medium was filtered likewise. Stock solutions of fluorescently labeled ribonucleases were diluted into the cell culture to a final concentration of 5 μM. Ribonucleases were incubated with cells for 4 h. Cells were then rinsed with PBS (2×400 μL), removed from the cell culture plate with trypsin (400 μL, 0.05% (1×) with EDTA; Invitrogen, Carlsbad, Calif.), placed in flow cytometry tubes containing 80 μL of FBS, and incubated on ice until analyzed by flow cytometry. Final fluorescence values were divided by the percent fluorophore labeling of the ribonuclease to determine the corrected value of fluorescence. Experiments were run twice in triplicate unless otherwise indicated. Data is illustrated in FIG. 4A and FIG. 4C.

Lec-2 cells = test: Cellular internalization by flow cytometry; format: cell-based, Chinese hamster
Method: as §1, §2, §3

Pro-5 cells [3] = test: Confocal microscopy of live cells; format: cell-based, Chinese hamster; settings: 5 μM, 4 h
Method: as §1
Pro-5 cells were plated on Nunc Lab-tek II 8-well chambered coverglass 24 h before use and grown to 80% confluency. Cells were incubated with 5 μM BODIPY FL-labeled ribonucleases for 4 h. Cell nuclei were stained with Hoechst 33342 (Invitrogen, 2 μg/mL) for the final 15 min of incubation. Cells were then washed twice with PBS, suspended in PBS, and examined using a Nikon Eclipse C1 laser scanning confocal microscope. Results are illustrated in FIG. 4B.

[4] = 5 μM, 4 h, relative to unmodified RNase A

B1: benzoboroxole-boronated RNase A: RNase A with 5-amino-2-hydroxymethylphenylboronic acid conjugated to protein carboxyl groups by carbodiimide condensation (conjugate, UniProt P61823 27-150, looked up)
Ribonuclease pancreatic: KETAAAKFERQHMDSSTSAASSSNYCNQMMKSRNLTKDRCKPVNTFVHESLADVQAVCSQKNVACKNGQTNCYQSYSTMSITDCRETGSSKYPNCAYKTTQANKHIIVACEGNPYVPVHFDASV
modifications: benzoboroxole conjugated to carboxyl groups
notes: RNase A with 5-amino-2-hydroxymethylphenylboronic acid conjugated to protein carboxyl groups by carbodiimide condensation
- retention on column of heparin in presence of fructose [1]: diminishing retention
- retention on column of heparin in presence of fructose ([1]; listed as boronated RNAse A): diminished the retention
- retention on column of heparin ([1]; versus unmodified RNase A, NaCl gradient in PBS): retained longer
- increase in cellular uptake (Pro-5 cells [2]; [4]): 4- to 5 fold
- effect of fructose on enhancement of cellular uptake (Pro-5 cells [2]; fructose 0.25 M): eliminated
- increase in cellular uptake (Lec-2 cells; [4]): 4- to 5 fold
- effect of fructose on enhancement of cellular uptake (Lec-2 cells; fructose 0.25 M): eliminated
- intracellular staining pattern (Pro-5 cells [3]): punctate staining
